In test [1] the target is manY component of the mannose permease complex (E. coli) (UniProt P69801).
In test [2] the target is manZ component of the mannose permease complex (E. coli) (UniProt P69805).

As to Lambda gpH (Uniprot P03736), the apparent titer of packaged phagemids in MG1655 and KEIO manY (log decrease in the apparent titer) in test [1] came to 2. Further, in test [2], the apparent titer of packaged phagemids in MG1655 and KEIO manZ (log decrease in the apparent titer) is 2.
